T1: orthogonal hCD122 receptor (hoRb), hCD122 with H133D and Y134F (human, UniProt P14784 27-550)
T1 sequence: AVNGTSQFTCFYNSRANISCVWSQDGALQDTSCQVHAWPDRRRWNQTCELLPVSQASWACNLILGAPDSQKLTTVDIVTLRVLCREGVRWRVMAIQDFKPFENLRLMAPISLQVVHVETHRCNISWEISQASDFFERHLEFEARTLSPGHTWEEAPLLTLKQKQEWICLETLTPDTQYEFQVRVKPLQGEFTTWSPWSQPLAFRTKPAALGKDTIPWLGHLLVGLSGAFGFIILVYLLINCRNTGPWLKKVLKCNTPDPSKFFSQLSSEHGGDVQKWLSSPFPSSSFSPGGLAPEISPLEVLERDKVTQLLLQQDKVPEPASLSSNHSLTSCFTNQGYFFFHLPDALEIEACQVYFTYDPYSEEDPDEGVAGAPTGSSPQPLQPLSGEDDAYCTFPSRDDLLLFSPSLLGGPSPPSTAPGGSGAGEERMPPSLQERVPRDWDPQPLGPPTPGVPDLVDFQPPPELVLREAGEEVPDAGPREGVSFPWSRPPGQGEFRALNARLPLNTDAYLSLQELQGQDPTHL


Columns and labels:
[1] = biological target: T1, orthogonal hCD122 receptor (hoRb), …; experiment: cell-based or functional assay
[2] = biological target: T1, orthogonal hCD122 receptor (hoRb), …; experiment: cell-based or functional assay; remark: listed apart in the source

Row | Binder | 3F8 Ortho Proliferation Signal 1:2 [1] | 3F8 Ortho Proliferation Signal 1:10 [1] | 3F8 Ortho Proliferation Signal 1:50 [1] | Relative Proliferation Fold Change 3F8 1:2 [1] | Relative Proliferation Fold Change 3F8 1:10 [1] | Relative Proliferation Fold Change 3F8 1:50 [1] | NKL Ortho Proliferation Signal 1:2 [2] | NKL Ortho Proliferation Signal 1:10 [2] | NKL Ortho Proliferation Signal 1:50 [2] | Relative Proliferation Fold Change NKL 1:2 [2] | Relative Proliferation Fold Change NKL 1:10 [2] | Relative Proliferation Fold Change NKL 1:50 [2]
1 | Q74S, SQVLKA (ligand) APTSSSTKKTQLQLSQLLVLLKAILNGINNYKNPKLTRMLTFKFYMPKKATELKHLQCLEEELKPLEEVLNLASSKNFHLRPRDLISNINVIVLELKGSETTFMCEYADETATIVEFLNRWITFCQSIISTLT | 36400 cts/min | 32500 cts/min | 27100 cts/min | 18.7 fold | 56.7 fold | 33.8 fold | 54600 | 65700 | 35000 | 4.07 fold | 4.17 fold | 2.44 fold
2 | I86V, SQVLKA (ligand) APTSSSTKKTQLQLSQLLVLLKAILNGINNYKNPKLTRMLTFKFYMPKKATELKHLQCLEEELKPLEEVLNLAQSKNFHLRPRDLVSNINVIVLELKGSETTFMCEYADETATIVEFLNRWITFCQSIISTLT | 34000 cts/min | 32600 cts/min | 15100 cts/min | 0.8 fold | 3.76 fold | 3.66 fold | 39900 | 38000 | 18400 | 3.82 fold | 2.67 fold | 1.42 fold
3 | L80F, SQVLKA (ligand) APTSSSTKKTQLQLSQLLVLLKAILNGINNYKNPKLTRMLTFKFYMPKKATELKHLQCLEEELKPLEEVLNLAQSKNFHFRPRDLISNINVIVLELKGSETTFMCEYADETATIVEFLNRWITFCQSIISTLT | 37200 cts/min | 26800 cts/min | 25800 cts/min | 1.01 fold | 2.8 fold | 16.8 fold | 61200 | 67800 | 33200 | 4.24 fold | 4.14 fold | 2.27 fold
4 | R81Y, SQVLKA (ligand) APTSSSTKKTQLQLSQLLVLLKAILNGINNYKNPKLTRMLTFKFYMPKKATELKHLQCLEEELKPLEEVLNLAQSKNFHLYPRDLISNINVIVLELKGSETTFMCEYADETATIVEFLNRWITFCQSIISTLT | 35800 cts/min | 46000 cts/min | 16500 cts/min | 4.14 fold | 16.6 fold | 17.6 fold | 59800 | 77900 | 49500 | 3.64 fold | 4.64 fold | 3.43 fold
5 | R81I, SQVLKA (ligand) APTSSSTKKTQLQLSQLLVLLKAILNGINNYKNPKLTRMLTFKFYMPKKATELKHLQCLEEELKPLEEVLNLAQSKNFHLIPRDLISNINVIVLELKGSETTFMCEYADETATIVEFLNRWITFCQSIISTLT | 40000 cts/min | 46000 cts/min | 20900 cts/min | 55.9 fold | 48.8 fold | 49.4 fold | 52800 | 58000 | 27300 | 3.84 fold | 3.85 fold | 1.92 fold
6 | R81D, SQVLKA (ligand) APTSSSTKKTQLQLSQLLVLLKAILNGINNYKNPKLTRMLTFKFYMPKKATELKHLQCLEEELKPLEEVLNLAQSKNFHLDPRDLISNINVIVLELKGSETTFMCEYADETATIVEFLNRWITFCQSIISTLT | 39300 cts/min | 30000 cts/min | 10400 cts/min | 7.51 fold | 13.6 fold | 11.5 fold | 71800 | 73800 | 44400 | 3.64 fold | 4.35 fold | 3.07 fold
7 | L85V, SQVLKA (ligand) APTSSSTKKTQLQLSQLLVLLKAILNGINNYKNPKLTRMLTFKFYMPKKATELKHLQCLEEELKPLEEVLNLAQSKNFHLRPRDVISNINVIVLELKGSETTFMCEYADETATIVEFLNRWITFCQSIISTLT | 44300 cts/min | 41300 cts/min | 18900 cts/min | 39.9 fold | 44.6 fold | 14.3 fold | 56300 | 49600 | 24200 | 3.94 fold | 3.34 fold | 1.71 fold
8 | L80V, SQVLKA (ligand) APTSSSTKKTQLQLSQLLVLLKAILNGINNYKNPKLTRMLTFKFYMPKKATELKHLQCLEEELKPLEEVLNLAQSKNFHVRPRDLISNINVIVLELKGSETTFMCEYADETATIVEFLNRWITFCQSIISTLT | 34900 cts/min | 34800 cts/min | 21200 cts/min | 30.6 fold | 38 fold | 32.7 fold | 62500 | 51600 | 24300 | 4.26 fold | 3.13 fold | 1.58 fold
9 | N88E, SQVLKA (ligand) APTSSSTKKTQLQLSQLLVLLKAILNGINNYKNPKLTRMLTFKFYMPKKATELKHLQCLEEELKPLEEVLNLAQSKNFHLRPRDLISEINVIVLELKGSETTFMCEYADETATIVEFLNRWITFCQSIISTLT | 326 cts/min | 588 cts/min | 850 cts/min | 1 fold | 1.2 fold | 1.44 fold | 6410 | 7090 | 6480 | 0.49 fold | 0.53 fold | 0.51 fold
10 | ΔL14, SQVLKA (ligand) APTSSSTKKTQLQSQLLVLLKAILNGINNYKNPKLTRMLTFKFYMPKKATELKHLQCLEEELKPLEEVLNLAQSKNFHLRPRDLISNINVIVLELKGSETTFMCEYADETATIVEFLNRWITFCQSIISTLT | 30300 cts/min | 24500 cts/min | 8130 cts/min | 125 fold | 26.5 fold | 13.2 fold | 31800 | 23500 | 12200 | 2.38 fold | 1.6 fold | 0.86 fold
11 | ΔR81, SQVLKA (ligand) APTSSSTKKTQLQLSQLLVLLKAILNGINNYKNPKLTRMLTFKFYMPKKATELKHLQCLEEELKPLEEVLNLAQSKNFHLPRDLISNINVIVLELKGSETTFMCEYADETATIVEFLNRWITFCQSIISTLT | 28600 cts/min | 32200 cts/min | 22000 cts/min | 46.4 fold | 39 fold | 24 fold | 62400 | 68800 | 31900 | 4.84 fold | 4.09 fold | 2.1 fold
12 | Δ88N, SQVLKA (ligand) APTSSSTKKTQLQLSQLLVLLKAILNGINNYKNPKLTRMLTFKFYMPKKATELKHLQCLEEELKPLEEVLNLAQSKNFHLRPRDLISINVIVLELKGSETTFMCEYADETATIVEFLNRWITFCQSIISTLT | 486 cts/min | 580 cts/min | 666 cts/min | 2.59 fold | 0.79 fold | 1.33 fold | 4610 | 7470 | 6690 | 0.42 fold | 0.59 fold | 0.58 fold

Reference: US20210196796A1 (SYNTHEKINE, published 2021)
